The target in assay [1] is recombinant wild type (wt) XptA2 (Xenorhabdus nematophilus). Nature of the assay: cryo-EM structure; single-particle cryo-EM of wt XptA2, pre-pore state; first map 7.2 Å, final map 3.1 Å (3.02 Å in the methods); 10 mM Tris, 100 mM NaCl, pH 7.5; C5 symmetry.
In assay [2] the target is seleno-methionine (SeMet) labeled XptA2 (Xenorhabdus nematophilus). Nature of the assay: crystal structure; SeMet XptA2 crystals grown in 0.1 M HEPES pH 7.5, 0.2 M NaCl, 16-20% PEG-3000; MR-SAD phasing with the 7 Å cryo-EM map; 3.1 Å; pre-pore state.

One may read the stoichiometry N as the number of molecules, sites or subunits per partner or assembly.

With recombinant wild type (wt) XptA2, the stoichiometry N in assay [1] stood at 5.
Take seleno-methionine (SeMet) labeled XptA2: the stoichiometry N in assay [2] came out at 5.

The record behind these values is PMC10487846.
